Measured values as given in patent publication US20040022780A1, “Serine protease and topical retinoid compositions useful for treatment of acne vulgarise and production of anti-aging effects” (priority 1997, published 2004).

Key:
Rhino mouse skin [1] = experiment: Visual irritation (scaling and erythema); format: in vivo; details: up to 1% (w/v) trypsin; not dose dependent
[2] = tested on: utriculi of Rhino mouse skin; experiment: Rhino mouse utriculus size reduction (whole mount epidermis image analysis); format: in vivo; details: single trypsin 1% (w/v) treatment, analyzed seven days later
Rhino mouse skin [3] = experiment: Delivery of fluorescently labeled trypsin into hair follicles (fluorescent microscopy); format: in vivo
Experimental: About 100 μL of the topically active trypsin composition of Example 2 was applied to the dorsal side of each Rhino mouse of Example 1. The trypsin used in this composition was fluorescently-labeled with a protein fluorescent labeling kit available from Molecular Probes, Inc. in accordance with its accompanying protocol (1996). At one and four hours after the application of the fluorescent trypsin treatment, a 1 cm by 2 cm sample of the skin surface of each mouse was isolated from each mouse with scissors, fixed with a 10% buffered formalin solution having a pH of about 6.9-7.1 at 25° C. available from Stephens Scientific, then formed into a paraffin block according to well-known procedures, and examined with fluorescent microscopy according to well-known methods.
This Example was repeated on similar Rhino mice of Example 1, with the exception that these mice were treated daily for 5 days with the 1% (w/v) trypsin composition of Example 2 prior to the fluorescent trypsin treatment. Four hours after the application of the fluorescent trypsin treatment on the fifth day, the skins of these mice were analyzed using similar fluorescent microscopic methods. […] This loss of barrier integrity is reflected in the values for transepidermal water loss (“TEWL”) as described in Example 4 and Table 1 herein.

C57B1/6 skin = experiment: Cutometer analysis of skin elasticity, C57B1/6 mouse; format: in vivo, C57B1/6 mice; details: Day 16, trypsin treated
Experimental: To quantitate this effect, a cutometer analysis was performed. We used a cutometer available from Acaderm (Menlo Park, Calif.), and employed the methods described in Couturaud et al., “Skin Biomechanical Properties: In Vivo Evaluation of Influence of Age and Body Site by a Non-Invasive Method,” 1 Skin Res. and Technol. 68-73 (1995) and Elsner et al., “Mechanical Properties of Human Forearm and Vulvar Skin,” 122 Br. J. Dermatol. 607-614 (1990) which are both incorporated herein by reference in their entirety. Suction was applied through a 2 mm aperture and the corresponding skin displacement and recovery after release of the negative pressure were measured. In human studies, an improvement in the ratios of deformation parameters Ua/Uf (skin fatigue, or total recovery from the load), Ur/Uf (biological elasticity, or elastic recovery after loading), and Ur/Ue (firmness, or improvement in the deformation resistance of the skin) indicates better tonicity and elasticity of the skin. The deformation parameters Ue, Uf, Ua, and Ur are dependent, in part, on skin thickness. Consequently, ratios were used for evaluation as described in Barel et al., “Suction Method for Measurement of Skin Mechanical Properties: The Cutometer,” Handbook of Non-Invasive Methods and the Skin 335-340 (1995) which is incorporated herein by reference in its entirety.
FIGS. 3(c) and (d), the untreated and trypsin treated skins, respectively, show the results of elastin staining.

Elastin mRNA = experiment: RT-PCR gene expression in skin, elastin; format: in vivo, Rhino mouse; details: increasing concentrations of trypsin (0.0001-0.01% (w/v)) daily for five days
Experimental: Rhino mice of Example 1 were treated daily with trypsin compositions (0% (w/v), 0.0001% (w/v), 0.001% (w/v), and 0.01% (w/v)), as prepared in Example 2, for five days and sacrificed at day eight. The skins of vehicle treated mice and trypsin-treated mice were obtained as described in Example 3, then their total RNAs were extracted using “RNA Stat-60” reagent available from Tel-Test “B,” Inc. as described in Chomczymski, “Single Step Method of RNA Isolation By Acid Guanidinium Thiocyanate-phenol-chloroform extraction,” 162 Anal. Biochem. 156-59 (1987) which is incorporated herein by reference in its entirety. A sufficient amount of RNase-free DNase available from Promega, Corp. under the tradename “RQ1 RNase-free DNase” was then added to the extracted RNA from each mouse such that each respective product contained 200 ng of DNased-RNA using the procedure set forth in “RNase-free DNase” protocol published by Promega, Corp. (May, 1995). […]
The PCR products were then analyzed on 2% agarose/ethidium bromide gels according to methods well-known in the art in order to compare the level of expression of certain genes in skins of trypsin-treated and untreated mice. […]

B1: trypsin (protein, UniProt P00760 24-246, looked up)
Serine protease 1: IVGGYTCGANTVPYQVSLNSGYHFCGGSLINSQWVVSAAHCYKSGIQVRLGEDNINVVEGNEQFISASKSIVHPSYNSNTLNNDIMLIKLKSAASLNSRVASISLPTSCASAGTQCLISGWGNTKSSGTSYPDVLKCLKAPILSDSSCKSAYPGQITSNMFCAGYLEGGKDSCQGDSGGPVVCSGKLQGIVSWGSGCAQKNKPGVYTKVCNYVSWIKQTIASN
notes: lyophilyzed trypsin from Sigma-Aldrich, a serine protease, in Hepes buffer mixed with GDL liposomes
visual irritation (scaling and erythema) (Rhino mouse skin [1]): minor scaling and erythema
effect on utriculus size reduction of a single treatment [2]: no effect
location of fluorescent labeling in skin (Rhino mouse skin [3]; 1 hour and 4 hours after topical application of about 100 μL fluorescent trypsin composition): almost all of the fluorescent labeling was found within the utriculi and sebaceous glands
change in delivery route into utriculi and sebaceous glands (Rhino mouse skin [3]; 4 hours after fluorescent trypsin, following 5 days of daily 1% (w/v) trypsin): no major change
barrier integrity (staining at outer portion of stratum corneum) (Rhino mouse skin [3]; following 5 days of daily 1% (w/v) trypsin): some loss of barrier integrity
Ua/Uf (skin fatigue, total recovery from the load) (C57B1/6 skin): 0.675 ± 0.18
Ur/Ue (firmness) (C57B1/6 skin): 0.7335 ± 0.02
Ur/Uf (biological elasticity) (C57B1/6 skin): 0.404 ± 0.1
Elastin mRNA (Elastin mRNA): increased
